According to publication doi:10.1101/2022.10.31.514592 (bioRxiv, 2022):

B1: S626-161 IgG (antibody, V domains shown)
VH: QLQLQESGPGLVKPSEALSLTCTVSGGSISTSNYYWGWIRQPPGKGLEWIGSIYYRGGTHYNPSLKTRVTISVDTSKNQFSLKLSSVTAADTAVYYCARHTYFYDIVGAAVWEPFDIWGQGTMVTVSS
VL: not shown
B2: S728-1157 IgG (antibody, V domains shown)
VH: EVQLVESGGGLVQPGGSLRLSCAASGLLVSRNYMNWVRQAPGKGLEWVSIIYSGGSTFYADSVEGRFTISRDESKNTLYLQMNSLRTDDTAVYYCARDLSDYGGIDCWGQGTLVTVSS
VL: ELTQPLSVSMALGQTARISCGGDNVGSQNVHWYQQRPGQAPVLVIYRDSNRPSGIPERFSGSKSGNTATLTISRAQAGDEADYYCQVWDSSTVAFGGGTKLTVL
B3: S451-1140 IgG (antibody, V domains shown)
VH: EVQLVESGGGLVPPGGSLRLSCAASGFIFSNYAMTWVRQAPGKGLEWVSAISGGGGSTDYADSVKGRFTISRDNSKNTLYLQMNSLRAEDTAVYYCAKDLFGSGWSLFDNWGQGTLVTVSS
VL: not shown

Experiments:
SARS-CoV-1 RBD = SARS-CoV-1 RBD (SARS-CoV-1, strain , UniProt P59594); test: ELISA
SARS-CoV-2 WT RBD = SARS-CoV-2 WT RBD (SARS-CoV-2, wildtype (Wuhan-Hu-1 type), UniProt P0DTC2); test: ELISA

| Binder | binding result (SARS-CoV-1 RBD) | binding result (SARS-CoV-2 WT RBD) |
| --- | --- | --- |
| B1 | binds | binds |
| B2 | – | binds |
| B3 | – | binds |
